Tested on: target antigen-expressing cell line
Experiment: Jurkat NFAT-GFP assay, coculture with target cell lines expressing the respective target antigen (summary Table 10A)
Format: cell-based, human
Set-up: key: The signs +/−, +, 2+ etc. after the name of the cell lines indicate the relative degree of positivity on the Jurkat-NFAT-GFP assay as measured by the % GFP positive cells; +: relative degree of positivity on the Jurkat-NFAT-GFP assay as measured by the % GFP positive cells; 2+: relative degree of positivity on the Jurkat-NFAT-GFP assay as measured by the % GFP positive cells
How it was run: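 Read-out: % GFP+ cells by FACS. SIR-transduced, puromycin-selected Jurkat NFAT-GFP (IL-2 promoter reporter) cocultured ~4–18 h with target line, E:T ~1:2; parental cells as control; graded +/−, +, 2+ relative to parental.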

B1: 111516-M03 (protein)
chain: MALPVTALLLPLALLLHAARPLEGKPIPNPLLGLDSTGSGEDLKNVFPPEVAVFEPSKAEIAHTQKATLVCLATGFYPDHVELSWWVNGKEVHSGVCTDPQPLKEQPALNDSRYCLSSRLRVSATFWQNPRNHFRCQVQFYGLSENDEWTQDRAKPVTQIVSAEAWGRADCGITSASYHQGVLSATILYEILLGKATLYAVLVSALVLMAMVKRKDSRGRAKRSGSGATNFSLLKQAGDVEENPGPTSMALPVTALLLPLALLLHAARPDIVLTQSPLSLAVSLGQPAIISCKASQSVSFAGTSLMHWYHQKPGQQPRLLIYRASNLEAGVPDRFSGSGSKTDFTLTISPVEAEDAATYYCQQSREYPYTFGGGTKLEIKRGGGGSGGGGSGGGGSQVQLVQSGAEVVKPGASVKISCKASGYTFTGYFMNWVKQSPGQSLEWIGRIHPYDGDTFYNQKFQGKATLTVDKSSNTAHMELLSLTSEDFAVYYCTRYDGSRAMDYWGQGTTVTVSSTREQKLISEEDGSGIQNPDPAVYQLRDSKSSDKSVCLFTDFDSQTNVSQSKDSDVYITDKCVLDMRSMDFKSNSAVAWSNKSDFACANAFNNSIIPEDTFFPSSDVPCDVKLVEKSFETDTNLNFQNLSVIGFRILLLKVAGFNLLMTLRLWSSRAKRSGSGVKQTLNFDLLKLAGDVESNPGPSRGHMTEYKPTVRLATRDDVPRAVRTLAAAFADYPATRHTVDPDRHIERVTELQELFLTRVGLDIGKVWVADDGAAVAVWTTPESVEAGAVFAEIGPRMAELSGSRLAAQQQMEGLLAPHRPKEPAWFLATVGVSPDHQGKGLGSAVVLPGVEAAERAGVPAFLETSAPRNLPFYERLGFTVTADVEVPEGPRTWCMTRKPGA
modifications: Polynucleotide encoding a Synthetic Immune Receptor (SIR)
Coculture with LoVo cells
  NFAT-GFP ASSAY Positive Cell lines: (+/−)
Coculture with SKOV3 cells
  NFAT-GFP ASSAY Positive Cell lines: SKOV3 (+), LoVo

B2: 101216-Y07 (protein)
chain: MALPVTALLLPLALLLHAARPDIQMTQSPSSLSASVGDRVTITCRASQGISSWLAWYQQKPEKAPKSLIYAASSLQSGVPSRFSGSGSGTDFTLTISSLQPEDFATYYCQQYNSYPPTFGGGTKVEIKLEGKPIPNPLLGLDSTGSGEDLKNVFPPEVAVFEPSKAEIAHTQKATLVCLATGFYPDHVELSWWVNGKEVHSGVCTDPQPLKEQPALNDSRYCLSSRLRVSATFWQNPRNHFRCQVQFYGLSENDEWTQDRAKPVTQIVSAEAWGRADCGITSASYHQGVLSATILYEILLGKATLYAVLVSALVLMAMVKRKDSRGRAKRSGSGATNFSLLKQAGDVEENPGPTSMDWIWRILFLVGAATGAHSFEEVQLVESGGGLVQPGESLRLSCVASGFTFSRYKMNWVRQAPGKGLEWVSYISRSGRDIYYADSVKGRFTISRDNAKNSLYLQMNSLRDEDTAVYYCAGTVTTYYYFGMDVWGHGTTVTVSSTREQKLISEEDGSGIQNPDPAVYQLRDSKSSDKSVCLFTDFDSQTNVSQSKDSDVYITDKCVLDMRSMDFKSNSAVAWSNKSDFACANAFNNSIIPEDTFFPSSDVPCDVKLVEKSFETDTNLNFQNLSVIGFRILLLKVAGFNLLMTLRLWSSRAKRSGSGVKQTLNFDLLKLAGDVESNPGPSRGHMTEYKPTVRLATRDDVPRAVRTLAAAFADYPATRHTVDPDRHIERVTELQELFLTRVGLDIGKVWVADDGAAVAVWTTPESVEAGAVFAEIGPRMAELSGSRLAAQQQMEGLLAPHRPKEPAWFLATVGVSPDHQGKGLGSAVVLPGVEAAERAGVPAFLETSAPRNLPFYERLGFTVTADVEVPEGPRTWCMTRKPGA
modifications: Synthetic Immune Receptor (SIR)
Coculture with H460 cells
  NFAT-GFP ASSAY Positive Cell lines: H460 (+/−), HCT116
Coculture with HCT116 cells
  NFAT-GFP ASSAY Positive Cell lines: (+/−)

B3: 021517-I01 (protein)
chain: MALPVTALLLPLALLLHAARPLEGKPIPNPLLGLDSTGSGEDLKNVFPPEVAVFEPSKAEIAHTQKATLVCLATGFYPDHVELSWWVNGKEVHSGVCTDPQPLKEQPALNDSRYCLSSRLRVSATFWQNPRNHFRCQVQFYGLSENDEWTQDRAKPVTQIVSAEAWGRADCGITSASYHQGVLSATILYEILLGKATLYAVLVSALVLMAMVKRKDSRGRAKRSGSGATNFSLLKQAGDVEENPGPTSMALPVTALLLPLALLLHAARPQSVVTQPPSVSGAPGQRVTISCTGSSSNIGAGYDVHWYQQLPGTAPKLLIYGNSNRPSGVPDRFSGSKSGTSASLAITGLQAEDEADYYCQSYDSSLSGSYVFGTGTKLTVLGGGGGSGGGGSGGGGSEVQLVETGGNLVQPGASLRLSCAASGFSFSGTAMHWVRQAPGKGLEWVSTISSTGRSTYYRDSVKGRFTISRDNSKNTLYLQMNSLRGEDTAVYYCARVSFDYWGQGTLVTVSSTREQKLISEEDGSGIQNPDPAVYQLRDSKSSDKSVCLFTDFDSQTNVSQSKDSDVYITDKCVLDMRSMDFKSNSAVAWSNKSDFACANAFNNSIIPEDTFFPSSDVPCDVKLVEKSFETDTNLNFQNLSVIGFRILLLKVAGFNLLMTLRLWSSRAKRSGSGVKQTLNFDLLKLAGDVESNPGPSRGHMTEYKPTVRLATRDDVPRAVRTLAAAFADYPATRHTVDPDRHIERVTELQELFLTRVGLDIGKVWVADDGAAVAVWTTPESVEAGAVFAEIGPRMAELSGSRLAAQQQMEGLLAPHRPKEPAWFLATVGVSPDHQGKGLGSAVVLPGVEAAERAGVPAFLETSAPRNLPFYERLGFTVTADVEVPEGPRTWCMTRKPGA
Coculture with L363 cells
  NFAT-GFP ASSAY Positive Cell lines: L363 (+/−)

B4: 100615-C06 (protein)
chain: MALPVTALLLPLALLLHAARPDIQMTQSPSSLSASVGDRVTITCRASQGIRNNLAWYQQKPGKAPKRLIYAASNLQSGVPSRFTGSGSGTEFTLIVSSLQPEDFATYYCLQHHSYPLTSGGGTKVELEGKPIPNPLLGLDSTGSGEDLKNVFPPEVAVFEPSKAEIAHTQKATLVCLATGFYPDHVELSWWVNGKEVHSGVCTDPQPLKEQPALNDSRYCLSSRLRVSATFWQNPRNHFRCQVQFYGLSENDEWTQDRAKPVTQIVSAEAWGRADCGITSASYHQGVLSATILYEILLGKATLYAVLVSALVLMAMVKRKDSRGRAKRSGSGATNFSLLKQAGDVEENPGPTSMDWIWRILFLVGAATGAHSFEEVQVLESGGGLVQPGGSLRLSCAASGFTFSSYAMSWVRQAPGKGLEWVSAISGSGGSTNYADSVKGRFTISRDNSKNTLYLQMNSLRAEDTAVYYCAGSSGWSEYWGQGTLVTVSSTREQKLISEEDGSGIQNPDPAVYQLRDSKSSDKSVCLFTDFDSQTNVSQSKDSDVYITDKCVLDMRSMDFKSNSAVAWSNKSDFACANAFNNSIIPEDTFFPSSDVPCDVKLVEKSFETDTNLNFQNLSVIGFRILLLKVAGFNLLMTLRLWSSRAKRSGSGVKQTLNFDLLKLAGDVESNPGPSRGHMTEYKPTVRLATRDDVPRAVRTLAAAFADYPATRHTVDPDRHIERVTELQELFLTRVGLDIGKVWVADDGAAVAVWTTPESVEAGAVFAEIGPRMAELSGSRLAAQQQMEGLLAPHRPKEPAWFLATVGVSPDHQGKGLGSAVVLPGVEAAERAGVPAFLETSAPRNLPFYERLGFTVTADVEVPEGPRTWCMTRKPGA
modifications: Synthetic Immune Receptor (SIR)
Coculture with HeLa (Hela) cells
  NFAT-GFP ASSAY Positive Cell lines: (+/−)
Coculture with LoVo cells
  NFAT-GFP ASSAY Positive Cell lines: LoVo (+/−), HeLa

B5: 111815-E04 (protein)
chain: MALPVTALLLPLALLLHAARPDEFEVQLVESGGGLVQAGGSLRLSCVASGISSSKRNMGWYRQAPGKQRESVATISSGGNKDYTDAVKDRFTISRDTTKNTVYLQMNSLKPEDTAVYYCKIEAGTGWATRRGYTYWGQGTLVTVSSLEGKPIPNPLLGLDSTGSGEDLKNVFPPEVAVFEPSEAEISHTQKATLVCLATGFYPDHVELSWWVNGKEVHSGVCTDPQPLKEQPALNDSRYCLSSRLRVSATFWQNPRNHFRCQVQFYGLSENDEWTQDRAKPVTQIVSAEAWGRADCGFTSESYQQGVLSATILYEILLGKATLYAVLVSALVLMAMVKRKDSRGRAKRSGSGATNFSLLKQAGDVEENPGPTSMDWIWRILFLVGAATGAHSFEVQLVESGGGSVQAGGSLRLSCTTSGRALNMYVMGWFRQAPGNEREFVAATSSSGGSTSYPDSVKGRFTISRDNAKNTVYLQMNSLKPEDTAAYRCAASPYVSTPTMNILEEYRYWGLGTQVTVSSTREQKLISEEDGSGIQNPDPAVYQLRDSKSSDKSVCLFTDFDSQTNVSQSKDSDVYITDKCVLDMRSMDFKSNSAVAWSNKSDFACANAFNNSIIPEDTFFPSPESSCDVKLVEKSFETDTNLNFQNLSVIGFRILLLKVAGFNLLMTLRLWSSRAKRSGSGVKQTLNFDLLKLAGDVESNPGPSRGHMTEYKPTVRLATRDDVPRAVRTLAAAFADYPATRHTVDPDRHIERVTELQELFLTRVGLDIGKVWVADDGAAVAVWTTPESVEAGAVFAEIGPRMAELSGSRLAAQQQMEGLLAPHRPKEPAWFLATVGVSPDHQGKGLGSAVVLPGVEAAERAGVPAFLETSAPRNLPFYERLGFTVTADVEVPEGPRTWCMTRKPGA
modifications: Polynucleotide encoding a Synthetic Immune Receptor (SIR)
Coculture with Bv173 cells
  NFAT-GFP ASSAY Positive Cell lines: (2+)
Coculture with U266 cells
  NFAT-GFP ASSAY Positive Cell lines: U266 (2+), Bv173

B6: 111915-U05 (protein)
chain: MALPVTALLLPLALLLHAARPDEFEVQLVESGGGLVQAGGSLRLSCVASGISSSKRNMGWYRQAPGKQRESVATISSGGNKDYTDAVKDRFTISRDTTKNTVYLQMNSLKPEDTAVYYCKIEAGTGWATRRGYTYWGQGTLVTVSSLEGKPIPNPLLGLDSTGSGEDLKNVFPPEVAVFEPSEAEISHTQKATLVCLATGFYPDHVELSWWVNGKEVHSGVCTDPQPLKEQPALNDSRYCLSSRLRVSATFWQNPRNHFRCQVQFYGLSENDEWTQDRAKPVTQIVSAEAWGRADCGFTSESYQQGVLSATILYEILLGKATLYAVLVSALVLMAMVKRKDSRGRAKRSGSGATNFSLLKQAGDVEENPGPTSMDWIWRILFLVGAATGAHSFEVQLVESGGGSVQPGGSLTLSCGTSGRTFNVMGWFRQAPGKEREFVAAVRWSSTGIYYTQYADSVKSRFTISRDNAKNTVYLEMNSLKPEDTAVYYCAADTYNSNPARWDGYDFRGQGTQVTVSSTREQKLISEEDGSGIQNPDPAVYQLRDSKSSDKSVCLFTDFDSQTNVSQSKDSDVYITDKCVLDMRSMDFKSNSAVAWSNKSDFACANAFNNSIIPEDTFFPSPESSCDVKLVEKSFETDTNLNFQNLSVIGFRILLLKVAGFNLLMTLRLWSSRAKRSGSGVKQTLNFDLLKLAGDVESNPGPSRGHMTEYKPTVRLATRDDVPRAVRTLAAAFADYPATRHTVDPDRHIERVTELQELFLTRVGLDIGKVWVADDGAAVAVWTTPESVEAGAVFAEIGPRMAELSGSRLAAQQQMEGLLAPHRPKEPAWFLATVGVSPDHQGKGLGSAVVLPGVEAAERAGVPAFLETSAPRNLPFYERLGFTVTADVEVPEGPRTWCMTRKPGA
modifications: Polynucleotide encoding a Synthetic Immune Receptor (SIR)
Coculture with Bv173 cells
  NFAT-GFP ASSAY Positive Cell lines: (+/−), THP1 (+/−),
Coculture with KG1 cells
  NFAT-GFP ASSAY Positive Cell lines: KG1 (2+)
Coculture with MOLM13 cells
  NFAT-GFP ASSAY Positive Cell lines: MOLM13 (+/−), Bv173
Coculture with THP1 cells
  NFAT-GFP ASSAY Positive Cell lines: (+/−), THP1 (+/−),
